Paper PMC3940072 (Journal of molecular biology, 2013)

T1: KaiC-R468C (Synechococcus elongatus, UniProt Q79PF4 1-519, R468C)
T1 sequence: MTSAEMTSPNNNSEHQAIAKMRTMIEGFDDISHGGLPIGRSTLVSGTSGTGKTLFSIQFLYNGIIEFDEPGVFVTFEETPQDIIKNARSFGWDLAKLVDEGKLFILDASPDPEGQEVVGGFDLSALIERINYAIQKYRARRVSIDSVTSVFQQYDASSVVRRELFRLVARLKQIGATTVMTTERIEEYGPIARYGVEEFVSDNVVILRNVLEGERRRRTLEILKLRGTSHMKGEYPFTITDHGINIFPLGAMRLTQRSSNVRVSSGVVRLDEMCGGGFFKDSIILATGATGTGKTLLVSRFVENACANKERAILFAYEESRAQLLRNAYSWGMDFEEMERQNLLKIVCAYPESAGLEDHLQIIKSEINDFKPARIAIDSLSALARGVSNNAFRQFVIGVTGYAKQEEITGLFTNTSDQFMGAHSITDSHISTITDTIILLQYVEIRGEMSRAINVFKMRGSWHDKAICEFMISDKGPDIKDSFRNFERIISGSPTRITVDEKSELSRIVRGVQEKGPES


Tests used:
cryo-EM structure = molecular target: the molecule itself; assay: cryo-EM structure
KaiC-R468C = molecular target: T1, KaiC-R468C; assay: native gel or EMSA

| Binder | stoichiometry N (cryo-EM structure) | binding result (KaiC-R468C) |
| --- | --- | --- |
| KaiC-Δ489 (C-terminally truncated form of S. elongatus KaiC) (domain or fragment, Synechococcus elongatus, UniProt Q79PF4 1-489, looked up, persistently phosphorylated (hyper-phosphorylated); sites not determined for this sample) MTSAEMTSPNNNSEHQAIAKMRTMIEGFDDISHGGLPIGRSTLVSGTSGTGKTLFSIQFLYNGIIEFDEPGVFVTFEETPQDIIKNARSFGWDLAKLVDEGKLFILDASPDPEGQEVVGGFDLSALIERINYAIQKYRARRVSIDSVTSVFQQYDASSVVRRELFRLVARLKQIGATTVMTTERIEEYGPIARYGVEEFVSDNVVILRNVLEGERRRRTLEILKLRGTSHMKGEYPFTITDHGINIFPLGAMRLTQRSSNVRVSSGVVRLDEMCGGGFFKDSIILATGATGTGKTLLVSRFVENACANKERAILFAYEESRAQLLRNAYSWGMDFEEMERQNLLKIVCAYPESAGLEDHLQIIKSEINDFKPARIAIDSLSALARGVSNNAFRQFVIGVTGYAKQEEITGLFTNTSDQFMGAHSITDSHISTITDTIILLQYVEIRGEMSRAINVFKMRGSWHDKAIREFMISDKGPDIKDSFRNFERI | 6 | – |
| wild-type Synechococcus elongatus KaiB (natural protein, UniProt Q79PF5 1-102, looked up) MSPRKTYILKLYVAGNTPNSVRALKTLKNILEVEFQGVYALKVIDVLKNPQLAEEDKILATPTLAKVLPLPVRRIIGDLSDREKVLIGLDLLYGELQDSDDF | – | binds |
